Experimental findings from PMC7055370, “Structure of the MICU1–MICU2 heterodimer provides insights into the gatekeeping threshold shift” (IUCrJ, 2020) are described below.

The data set concerns the molecule itself. The data set is described as follows: crystal structure; apo MICU1 ΔC - MICU2 ΔC (SeMet) mixed at a 1:1 molar ratio; crystals at 20°C in 20%(w/v) PEG 3350, 0.2 M ammonium citrate tribasic pH 7.5; 3.1 Å, SAD.

B1: human MICU2 ΔC helix (residues 84–401), selenomethionine derivative (domain or fragment, UniProt Q8IYU8 84-401, looked up)
chain: SLRKQRFMQFSSLEHEGEYYMTPRDFLFSVMFEQMERKTSVKKLTKKDIEDTLSGIQTAGCGSTFFRDLGDKGLISYTEYLFLLTILTKPHSGFHVAFKMLDTDGNEMIEKREFFKLQKIISKQDDLMTVKTNETGYQEAIVKEPEINTTLQMRFFGKRGQRKLHYKEFRRFMENLQTEIQEMEFLQFSKGLSFMRKEDFAEWLLFFTNTENKDIYWKNVREKLSAGESISLDEFKSFCHFTTHLEDFAIAMQMFSLAHRPVRLAEFKRAVKVATGQELSNNILDTVFKIFDLDGDECLSHEEFLGVLKNRMHRGLWV
modifications: selenomethionine (SeMet) derivative
notes: human MICU2 (mitochondrial calcium uptake protein 2), residues 84-401, without the C-terminal helix; pCold II vector with 6x His tag at the N terminus; also called mitochondrial calcium uptake protein 2; source: E. coli B834(DE3), purified (Ni-IDA, SEC); not shown: His6, N-terminal, kept
On to B1, for which the binding result is “binds”.
